Legend:
Assay in all cases: SEC
[1] = target: Δ17-ClpP (Escherichia coli)
[2] = target: Δ6-ClpP (Escherichia coli)
[3] = target: Δ10-ClpP (Escherichia coli)
[4] = target: Δ4-ClpP (Escherichia coli)
[5] = target: Δ14-ClpP (Escherichia coli)

Substance: Δ17-ClpP (domain or fragment)
- stoichiometry N [1]: 14

Substance: Δ6-ClpP (domain or fragment)
- stoichiometry N [2]: 14

Substance: Δ10-ClpP (domain or fragment)
- stoichiometry N [3]: 14

Substance: Δ4-ClpP (domain or fragment)
- stoichiometry N [4]: 14

Substance: Δ14-ClpP (domain or fragment)
- stoichiometry N [5]: 14
